According to patent US20200095340A1:
Numbering of substitutions follows the chain as printed.

B1: anti-DLL3 trispecific protein, DLL3 binder 2B01 (protein, part only; not given: CD3 fragment and albumin sdAb, part only)
chain, part: EVQLVESGGGLVQPGGSLTLSCVASGSTSLINAMGWYRRAPGKQRELVAGISSDGSKVYADSVKGRFTISRDNAKNSVYLQMNSLRAEDTAVYYCYYFRHVSGSSMRYWGQGTLVTVSSGGGGSGGGSGGGGSGGGSHHHHHH
B2: anti-DLL3 trispecific protein, DLL3 binder 3C06 (protein, part only; not given: CD3 binder and albumin binder, part only)
chain, part: EVQLVESGGGLVQPGGSLTLSCAASGTSVSFLSIAWYRQAPGKKRELVAGISADGSTDYIASVKGRFTISRDNAKNSVYLQMNSLRAEDTAVYYCYAYRWRTRYTYWGQGTLVTVSSGGGGSGGGSGGGGSGGGSHHHHHH
B3: anti-DLL3 trispecific protein, DLL3 binder 1H02 (protein, part only; not given: anti-CD3 fragment and anti-albumin domain, part only)
chain, part: B1 chain, part with T28K, L30S, V48A, D61Q, H100T, V101S
B4: anti-DLL3 trispecific protein, DLL3 binder 1G09 (protein, part only; not given: anti-CD3 fragment and anti-albumin domain, part only)
chain, part: B1 chain, part with L30S, H100T, G103K
B5: anti-DLL3 trispecific protein, DLL3 binder 4E06 (protein, part only; not given: anti-CD3 fragment and anti-albumin domain, part only)
chain, part: B2 chain, part with I34M, A61R, R101T, Y104L
B6: anti-DLL3 trispecific protein, DLL3 binder 2F06 (protein, part only; not given: CD3 fragment and albumin sdAb, part only)
chain, part: B1 chain, part with L30S, M34Y, K57A, H100T, V101H
B7: anti-DLL3 trispecific protein, DLL3 binder 2A09 (protein, part only; not given: anti-CD3 and anti-albumin domains, part only)
chain, part: B1 chain, part with L30S, I31R, D54N, A60S, H100T, R107S
B8: anti-DLL3 trispecific protein, DLL3 binder 3E09 (protein, part only; not given: CD3 binder and albumin binder, part only)
chain, part: B2 chain, part with T27S, S30R, I34M, A53R, A61D, R101S
B9: anti-DLL3 trispecific protein, DLL3 binder 1F04 (protein, part only; not given: anti-CD3 and anti-albumin domains, part only)
chain, part: B1 chain, part with S27G, L30S, A60S, H100T, M106A
B10: anti-DLL3 trispecific protein, DLL3 binder 4B08 (protein, part only; not given: CD3 fragment and albumin sdAb, part only)
chain, part: B2 chain, part with T27S, L32M, I34M, R101T, Y104S
B11: anti-DLL3 trispecific protein, DLL3 binder 2G04 (protein, part only; not given: anti-CD3 fragment and anti-albumin sdAb, part only)
chain, part: B1 chain, part with L30S, K57L, H100I, V101L
B12: anti-DLL3 trispecific protein, DLL3 binder 4B01 (protein, part only; not given: anti-CD3 and anti-albumin domains, part only)
chain, part: B2 chain, part with T27S, S30K, I34M, A53R, A61D, R101T, Y104F
B13: anti-DLL3 trispecific protein, DLL3 binder 1B02 (protein, part only; not given: anti-CD3 fragment and anti-albumin sdAb, part only)
chain, part: B1 chain, part with L30S, V58I, H100T
B14: anti-DLL3 trispecific protein, DLL3 binder 1B04 (protein, part only; not given: CD3 fragment and albumin sdAb, part only)
chain, part: B1 chain, part with S27T, L30S, K57L, H100I, S102R
B15: anti-DLL3 trispecific protein, DLL3 binder 2E06 (protein, part only; not given: CD3 binder and albumin binder, part only)
chain, part: B1 chain, part with L30S, D61S, H100T, S102R
B16: anti-DLL3 trispecific protein, DLL3 binder 3E011 (protein, part only; not given: CD3 binder and albumin binder, part only)
chain, part: B2 chain, part with T27S, S28K, I34M, A53R, A61D, R101T, Y106F
B17: anti-DLL3 trispecific protein, DLL3 binder 4E01 (protein, part only; not given: anti-CD3 fragment and anti-albumin sdAb, part only)
chain, part: B2 chain, part with T27S, I34V, A53R, A61D
B18: anti-DLL3 trispecific protein, DLL3 binder 3D03 (protein, part only; not given: anti-CD3 fragment and anti-albumin sdAb, part only)
chain, part: B2 chain, part with T27S, S30V, I34M, T57M, A61D
B19: anti-DLL3 trispecific protein, DLL3 binder 4E07 (protein, part only; not given: CD3 binder and albumin binder, part only)
chain, part: B2 chain, part with T27S, S28R, I34M, D58M, A61D, R101T, Y104L
B20: anti-DLL3 trispecific protein, DLL3 binder 1G04 (protein, part only; not given: anti-CD3 fragment and anti-albumin sdAb, part only)
chain, part: B1 chain, part with L30S, I31T, Y59L, H100T, S102N, G103L
B21: anti-DLL3 trispecific protein, DLL3 binder 3E04 (protein, part only; not given: CD3 fragment and albumin sdAb, part only)
chain, part: B2 chain, part with T27S, S30H, I34M, A53R, A61D, R101T, T105R
B22: anti-DLL3 trispecific protein, DLL3 binder 2B011 (protein, part only; not given: CD3 binder and albumin binder, part only)
chain, part: B1 chain, part with S27N, L30S, K57R, H100T, Y108S
B23: anti-DLL3 trispecific protein, DLL3 binder 3E02 (protein, part only; not given: anti-CD3 fragment and anti-albumin domain, part only)
chain, part: B2 chain, part with T27S, S28G, S30R, I34M, A53P, A61D, R101T, T102R
B24: anti-DLL3 trispecific protein, DLL3 binder 3D02 (protein, part only; not given: anti-CD3 fragment and anti-albumin sdAb, part only)
chain, part: B2 chain, part with T27S, S30R, I34M, A53R, A61D, R101I
B25: anti-DLL3 trispecific protein, DLL3 binder 3A010 (protein, part only; not given: anti-CD3 fragment and anti-albumin sdAb, part only)
chain, part: B2 chain, part with T27S, S28R, I34M, D58L, A61D, R101T, Y104R
B26: anti-DLL3 trispecific protein, DLL3 binder 2C01 (protein, part only; not given: anti-CD3 fragment and anti-albumin sdAb, part only)
chain, part: B1 chain, part with S29A, L30S, H100Y
B27: anti-DLL3 trispecific protein, DLL3 binder 3G06 (protein, part only; not given: CD3 binder and albumin binder, part only)
chain, part: B2 chain, part with T27S, S30K, I34M, D58L, A61D, R101T, Y104R
B28: anti-DLL3 trispecific protein, DLL3 binder 3B010 (protein, part only; not given: anti-CD3 and anti-albumin domains, part only)
chain, part: B2 chain, part with T27S, I34M, A53R, A61D, R101V
B29: anti-DLL3 trispecific protein, DLL3 binder 3A03 (protein, part only; not given: CD3 fragment and albumin sdAb, part only)
chain, part: B2 chain, part with T27S, S28R, I34M, A53R, A61D, R101T, Y104R
B30: anti-DLL3 trispecific protein, DLL3 binder 3F09 (protein, part only; not given: anti-CD3 fragment and anti-albumin sdAb, part only)
chain, part: B2 chain, part with T27S, S30R, I34M, A53R, A61D, R101G
B31: anti-DLL3 trispecific protein, DLL3 binder 4B04 (protein, part only; not given: anti-CD3 fragment and anti-albumin sdAb, part only)
chain, part: B2 chain, part with T27S, S30L, I34M, I51V, A53S, A61D
B32: anti-DLL3 trispecific protein, DLL3 binder 3G08 (protein, part only; not given: anti-CD3 fragment and anti-albumin sdAb, part only)
chain, part: B2 chain, part with T27S, S28R, I34M, A53K, A61D, R101T, Y104V
B33: anti-DLL3 trispecific protein, DLL3 binder 3A08 (protein, part only; not given: CD3 binder and albumin binder, part only)
chain, part: B2 chain, part with T27S, S30G, I34M, A61R
B34: anti-DLL3 trispecific protein, DLL3 binder 3B02 (protein, part only; not given: CD3 fragment and albumin sdAb, part only)
chain, part: B2 chain, part with T27S, S30Q, I34M, A61N
B35: anti-DLL3 trispecific protein, DLL3 binder 4F03 (protein, part only; not given: CD3 binder and albumin binder, part only)
chain, part: B2 chain, part with T27S, S30Q, I34M, A53Y, A61D
B36: anti-DLL3 trispecific protein, DLL3 binder 1B08 (protein, part only; not given: CD3 binder and albumin binder, part only)
chain, part: B1 chain, part with S27T, L30S, A60V, H100F
B37: anti-DLL3 trispecific protein, DLL3 binder 2G011 (protein, part only; not given: anti-CD3 fragment and anti-albumin sdAb, part only)
chain, part: B1 chain, part with L30S, V48P, S53R, H100Y
B38: anti-DLL3 trispecific protein, DLL3 binder 3G07 (protein, part only; not given: anti-CD3 fragment and anti-albumin sdAb, part only)
chain, part: B2 chain, part with T27S, I34M, A53R, A61D, R101T, T102S
B39: anti-DLL3 trispecific protein, DLL3 binder 4E011 (protein, part only; not given: anti-CD3 fragment and anti-albumin sdAb, part only)
chain, part: B2 chain, part with T27S, I34M, D54T, A61D, R101S
B40: anti-DLL3 trispecific protein, DLL3 binder 3H07 (protein, part only; not given: anti-CD3 and anti-albumin domains, part only)
chain, part: B2 chain, part with T27S, S28R, I34M, D58S, A61D
B41: anti-DLL3 trispecific protein, DLL3 binder 1F07 (protein, part only; not given: CD3 fragment and albumin sdAb, part only)
chain, part: B1 chain, part with L30S, Y59D, H100T

What follows are binders tested against biotinylated human DLL3 protein expressed as a human IgG1 fusion protein (human) (UniProt Q9NYJ7) (assay: Octet, biotinylated human DLL3-IgG1 fusion on streptavidin tips, single 50 nM, conditioned medium (relative KD)).
Sequence of biotinylated human DLL3 protein expressed as a human IgG1 fusion protein (human) (Q9NYJ7 27-492): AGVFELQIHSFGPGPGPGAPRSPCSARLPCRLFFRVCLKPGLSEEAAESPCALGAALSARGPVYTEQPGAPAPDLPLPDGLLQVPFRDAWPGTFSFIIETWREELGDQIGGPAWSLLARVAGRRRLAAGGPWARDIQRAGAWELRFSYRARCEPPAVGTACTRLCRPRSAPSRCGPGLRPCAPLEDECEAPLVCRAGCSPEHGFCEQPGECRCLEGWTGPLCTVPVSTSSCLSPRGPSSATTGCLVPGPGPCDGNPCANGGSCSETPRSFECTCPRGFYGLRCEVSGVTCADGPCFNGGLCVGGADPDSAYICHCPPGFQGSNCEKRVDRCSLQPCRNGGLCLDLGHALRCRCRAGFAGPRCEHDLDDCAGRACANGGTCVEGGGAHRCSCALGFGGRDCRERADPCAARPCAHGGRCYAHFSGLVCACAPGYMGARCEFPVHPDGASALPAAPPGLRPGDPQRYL
For B1, the Kd was 10 nM.
With B2 the Kd was 10 nM.
In the case of B3, the Kd is reported as 10 nM.
In the case of B4, the Kd is reported as 10 nM.
B5 was tested, and the Kd was 10 nM.
B6 showed a Kd of 10 nM.
B7 was tested, and the Kd was 10 nM.
B8 gave a Kd of 10 nM.
With B9 the Kd was 10 nM.
Work on B10 yielded a Kd of 10 nM.
With B11 the Kd was 11 nM.
Work on B12 yielded a Kd of 11 nM.
B13 showed a Kd of 11 nM.
Work on B14 yielded a Kd of 11 nM.
B15 showed a Kd of 11 nM.
B16 was tested, and the Kd was 11 nM.
Work on B17 yielded a Kd of 11 nM.
For B18, the Kd was 11 nM.
In the case of B19, the Kd is reported as 11 nM.
Binder B20 has a Kd of 11 nM.
With B21 the Kd was 11 nM.
Work on B22 yielded a Kd of 11 nM.
Binder B23 has a Kd of 12 nM.
For B24, the Kd was 12 nM.
B25 showed a Kd of 12 nM.
B26 gave a Kd of 12 nM.
With B27 the Kd was 12 nM.
Binder B28 has a Kd of 12 nM.
With B29 the Kd was 12 nM.
B30 gave a Kd of 12 nM.
With B31 the Kd was 12 nM.
B32 gave a Kd of 12 nM.
With B33 the Kd was 12 nM.
B34 showed a Kd of 12 nM.
With B35 the Kd was 12 nM.
Work on B36 yielded a Kd of 12 nM.
B37 was tested, and the Kd was 13 nM.
B38 showed a Kd of 13 nM.
With B39 the Kd was 13 nM.
For B40, the Kd was 13 nM.
Work on B41 yielded a Kd of 13 nM.
